# Laboratory results as given in paper PMC7937711, “Development and Characterization of Nanobodies Targeting the Kupffer Cell” (Frontiers in Immunology, 2021).
# Positions count from the first letter of the chain named.
# T1: recombinant mouse Clec4F (CLEC4F/CLECSF13), soluble extracellular domain Ala65-Gly548 (mouse) (UniProt P70194)
# T1 sequence: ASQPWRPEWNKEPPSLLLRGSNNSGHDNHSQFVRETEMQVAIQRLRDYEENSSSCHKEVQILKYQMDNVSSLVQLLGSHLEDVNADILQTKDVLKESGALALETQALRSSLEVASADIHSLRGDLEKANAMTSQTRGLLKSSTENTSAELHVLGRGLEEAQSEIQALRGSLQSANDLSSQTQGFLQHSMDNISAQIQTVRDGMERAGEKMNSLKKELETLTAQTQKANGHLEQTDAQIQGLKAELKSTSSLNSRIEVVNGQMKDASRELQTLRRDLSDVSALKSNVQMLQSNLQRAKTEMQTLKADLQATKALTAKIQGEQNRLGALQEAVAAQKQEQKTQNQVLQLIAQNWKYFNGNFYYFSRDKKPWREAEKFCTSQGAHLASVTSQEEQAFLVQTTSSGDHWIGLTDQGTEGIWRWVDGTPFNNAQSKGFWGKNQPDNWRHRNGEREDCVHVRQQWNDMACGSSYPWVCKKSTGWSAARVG
# B1: Nb 10.63 (VHH)
# VHH: QVQLVESGGGLVQAGGSLRLSCAASGRTFSDYNMGWFRQAPGKEREFVATISRSGAGTYYTDSVKGRFTISRDNAKNTVYLQMNNLKPEDSAAYYCAATLRVALSTITVGGYDYWGQGTQVTVSS
# B2: Nb 7.24 (VHH)
# VHH: QVQLVESGGGLVQPGGSLRLSCAASGFTLDYYAIGWFRQAPGKEREGVSCIASDGGSTKYADSVKGRFTISRDSAKNTVYLQMNSLKPEDTAIYYCAAGRPGYCSGYALKEIYPYRDWGQGTQVTVSS
# B3: Nb 4.39 (VHH)
# VHH: DVQLVESGGGLVQPGGSLRLSCAASGSNVDIATISWYRQGTGNQREFVAYITPRGNTLYGASVTGRFTISRDNAKNTVYLQMNSLRFDDTAVYYCNVARLGRNYWGQGTQVTVSS
# B4: Nb1.46 (VHH)
# VHH: QVQLVESGGGLVQAGGSLRLSCAASGRTFSSYAMGWFRQAPGKERECVAAMDWSTSATYYADSVKGRFTISRDNAKNTVYLQMNSLKPEDTAVYYCAADLDYSDYGPFPGDMDYWGKGTQVTVSS
# notes: The preparation held dimers beside monomers (SDS-PAGE); extra cysteine at position 52 (IMGT); also called R2-46; group G1; source: E. coli WK6 periplasm, purified (IMAC Ni-NTA, dialysis); not shown: His6, C-terminal, kept
# B5: Nb3.60 (VHH)
# VHH: QVQLVESGGGLVQPGGSLRLSCVASGTIFSMYGVYWYRQAPGNQREVVAWISSSGNTNYVNAVKGRFTISRDNAKNTTWLQMHSLKPEDAAVYYCRLGMNYWGKGTQVTVSS
# notes: The preparation held dimers beside monomers (SDS-PAGE); also called R2-60; group G3; source: E. coli WK6 periplasm, purified (IMAC Ni-NTA, dialysis)
# B6: Nb14.70 (VHH)
# VHH: QVQLVESGGGLVQAGDSLSLVCTLPERSRFAVGWFRQASGKEREIVAAISWLGMNEYYGDSVKGRSTISRDNAKNTVRLQMDSLKREDTAVYYCAADYSLDNVRRTPRFWGQGTQVTVSS
# B7: Nb5.10 (VHH)
# VHH: QVQLVESGGGLVQPGGSLRLSCAANVSSFRFAAMGWYRQVQGKRRELVATITRDGVSNYVEPMKGRFTISRDNGKNTVYLQMNHLQPEDTAVYYCAAKISPFGGTWTPDYWGQGTQVTVSS
# notes: also called R3-10; group G5; source: E. coli WK6 periplasm, purified (IMAC Ni-NTA, dialysis)
# B8: Nb12.75 (VHH)
# VHH: QVQLVESGGGLVQAGGSLRLSCAASLRTFSNAMGWFRQAPGKEREFVAVITWSGRVTNYSDSVKGRFTISKDNAKNTMYLQMNSLKLEDTAVYFCARESTFATANPKDYAYWGQGTQVTVSS
# notes: also called R2-75; group G12; source: E. coli WK6 periplasm, purified (IMAC Ni-NTA, dialysis)
# B9: Nb6.19 (VHH)
# VHH: DVQLVESGGGLVQPGGSLRLSCAASGFTLSTYAMRWVRQAPGKGLEWVSDINSGGDVMSYRDSVKGRFTISRDDAKNTLYLQMNSLKPEDTAVYYCTNGWSRGQGTQVTVSS
# notes: also called R2-19; group G6; source: E. coli WK6 periplasm, purified (IMAC Ni-NTA, dialysis)
# B10: Nb6.3 (VHH)
# VHH: B9 VHH with D1Q, L29F, T31S, S53K, D56S, V57G, M58T, W100G
# notes: also called R3-3; group G6; source: E. coli WK6 periplasm, purified (IMAC Ni-NTA, dialysis)
# B11: Nb10.16 (VHH)
# VHH: B1 VHH with Q1D, Q13E, A14P, S54N, T58S
# notes: Labelled with 99mTc through its His tag for the biodistribution test only; also called R2-16; group G10; source: E. coli WK6 periplasm, purified (IMAC Ni-NTA, dialysis; size exclusion chromatography for the later tests); not shown: His6, C-terminal, kept
# B12: Nb10.66 (VHH)
# VHH: B1 VHH with Q1D, A56G, T61S, D113N
# notes: also called R2-66; group G10; source: E. coli WK6 periplasm, purified (IMAC Ni-NTA, dialysis)
# B13: Nb10.21 (VHH)
# VHH: B1 VHH with D31S, S54N, L100Q, D113E
# notes: also called R2-21; group G10; source: E. coli WK6 periplasm, purified (IMAC Ni-NTA, dialysis)
# B14: Nb10.17 (VHH)
# VHH: B1 VHH with S30D, D31S, V79M, Y114I
# notes: also called R3-17; group G10; source: E. coli WK6 periplasm, purified (IMAC Ni-NTA, dialysis)
# B15: Nb8.37 (VHH)
# VHH: QVQLVESGGGLVQPGGSLRLSCAASGLTLDYLRIAWFRQAPGKKRERVSCISITEGSANYADSVKGRFTISRDNAKNTVFLQMNSLKPEDTAVYYCAARRYYCSGTPTDYAYWGQGTQVTVSS
# notes: Labelled with 99mTc through its His tag for the biodistribution test only; also called R3-37; group G8; source: E. coli WK6 periplasm, purified (IMAC Ni-NTA, dialysis; size exclusion chromatography for the later tests); not shown: His6, C-terminal, kept
# B16: Nb6.4 (VHH)
# VHH: QVQLVESGGGLVQPGGSLTLSCAASGFTISNYAMKWDRQAPGKGFEWVSTINSDGDNTSYRDSVKGRFTISRDNAKNTLYLQMNSLKPEDTAVYYCSNGGRRGQGTQVTVSS
# notes: also called R3-4; group G6; source: E. coli WK6 periplasm, purified (IMAC Ni-NTA, dialysis)
# B17: Nb2.22 (VHH)
# VHH: QVQLVESGGGLVQAGGSLRLSCAASGATFITYGMTWFRQAPGKEREFVAAVTGNGAGTTYLPSVKGRFTISRDNAKNTVYLQMSSLKPEDTAVYYCGGRRWVPATAVDQVAYWGQGTQVTVSS
# notes: Labelled with 99mTc through its His tag for the biodistribution test only; also called R3-22; group G2; source: E. coli WK6 periplasm, purified (IMAC Ni-NTA, dialysis; size exclusion chromatography for the later tests); not shown: His6, C-terminal, kept
# B18: Nb11.20 (VHH)
# VHH: QVQLVESGGGLVQTGGSLRLSCAASGRTVSSYRMGWFRQAPGKEREFVCMITRSGFKTYCNDSVKGRFTISRDVAVNTVNLQMNSLKPEDTADYYCAATERWGTTATMTTANDYDYWGQGTQVTVSS
# notes: also called R2-20; group G11; source: E. coli WK6 periplasm, purified (IMAC Ni-NTA, dialysis)
# B19: Nb11.16 (VHH)
# VHH: QVQLVESGGGLVQAGGSLRLSCVASGGTFSNYRMAWFRQAPGKEREFVSLITRSGGSTYYADSVKGRFTISRDNAKNTVSLQMNTLKPEDTAVYTCAATPRFDSYSNYIRTNGYDYWGQGTQVTVSS
# notes: also called R3-16; group G11; source: E. coli WK6 periplasm, purified (IMAC Ni-NTA, dialysis)
# B20: Nb11.28 (VHH)
# VHH: B19 VHH with G16A, V23A, K76Q, Y105G, N107Y, I109T
# notes: also called R3-28; group G11; source: E. coli WK6 periplasm, purified (IMAC Ni-NTA, dialysis)
# B21: Nb13.12 (VHH)
# VHH: QVQLVESGGGLVQDEGSLRLSCAASGLIFSNYIVGWFRQTPGKEREFVAAIRWGGTSSYYSDSVKGRFTVSRDNAKNTLYLQMNNLKPEDTAVYYCATGPYYRGDYRVPDNMDYWGKGTQVTVSS
# notes: also called R3-12; group G13; source: E. coli WK6 periplasm, purified (IMAC Ni-NTA, dialysis)
# B22: Nb9.15 (VHH)
# VHH: QVQLVESGGGLVQPGGSLRLSCAASGFSLASRTIAWFRQAPGKEREGVSCISRSGAFTNNADSVKGRFTISRDNAKNTVYLQMNSLKPEDTADYYCAVTSSWYSTCLRESIYDSWGQGTQVTVSS
# notes: also called R3-15; group G9; source: E. coli WK6 periplasm, purified (IMAC Ni-NTA, dialysis)
# B23: Nb6.18 (VHH)
# VHH: DVQLGESGGGLVQPGGSLRLSCAASGFTFSSYAMRWVRQAPGKALEWVADINSSGAYTNYRDSVTGRFIISRDNVKNTLYLQMDNMKPEDTAVYYCTTGGQRGQGTQVTVSS
# notes: also called R3-18; group G6; source: E. coli WK6 periplasm, purified (IMAC Ni-NTA, dialysis)
# B24: Nb6.39 (VHH)
# VHH: B9 VHH with D1Q, L29F, S53Q, D56G, M58T, K65L, P88R, W100R
# notes: also called R3-39; group G6; source: E. coli WK6 periplasm, purified (IMAC Ni-NTA, dialysis)
# Molecular target: T2, recombinant mouse Clec4F (CLEC4F/CLECSF13), soluble extracellular domain Ala65-Gly548 (Mus musculus, UniProt P70194)
# Experiment: not given
# Conditions: not given
row,Binder,binding result
1,B1,binds
2,B2,binds
3,B3,binds

# Molecular target: Nb1.46 (alpaca (Vicugna pacos))
# Experiment: SDS-PAGE; 10% SDS-PAGE with Coomassie staining of the nanobody preparations after IMAC and dialysis
# Conditions: not given
row,Binder,stoichiometry N
1,B4,2

# Molecular target: Nb3.60 (alpaca (Vicugna pacos))
# Experiment: as above
# Conditions: not given
row,Binder,stoichiometry N
1,B5,2

# Molecular target: T1, recombinant mouse Clec4F (CLEC4F/CLECSF13), soluble extracellular domain Ala65-Gly548 (mouse)
# Experiment: SPR; Biacore T200; 400 RU of recombinant mouse Clec4F coupled to a CM5 chip; nanobodies flown at 30 ul/min at 1-400 nM; 1:1 binding model
# Conditions: not given
Binder,koff,kon
B6,0.0606 s⁻¹,3.06e+07 M⁻¹ s⁻¹

# Molecular target: T2, recombinant mouse Clec4F …
# Experiment: as above
# Conditions: both partners purified
row,Binder,binding result
1,B4,binds
2,B7,binds
3,B8,binds

# Molecular target: T2, recombinant mouse Clec4F …
# Experiment: as above
# Conditions: both partners purified
# Remark: another data set of the same source
Binder,Kd,koff,kon
B9,0.47 nM,0.000612 s⁻¹,1.3e+06 M⁻¹ s⁻¹
B10,0.296 nM,0.000848 s⁻¹,2.87e+06 M⁻¹ s⁻¹
B11,0.524 nM,0.000825 s⁻¹,1.58e+06 M⁻¹ s⁻¹
B12,0.314 nM,0.00135 s⁻¹,4.28e+06 M⁻¹ s⁻¹
B13,0.484 nM,0.00223 s⁻¹,4.62e+06 M⁻¹ s⁻¹
B14,0.174 nM,0.00158 s⁻¹,9.08e+06 M⁻¹ s⁻¹
B15,0.79 nM,0.00124 s⁻¹,1.57e+06 M⁻¹ s⁻¹
B5,0.618 nM,0.00475 s⁻¹,7.69e+06 M⁻¹ s⁻¹
B16,2 nM,0.00231 s⁻¹,1.16e+06 M⁻¹ s⁻¹
B17,0.269 nM,0.00221 s⁻¹,8.24e+06 M⁻¹ s⁻¹
B18,0.403 nM,0.00139 s⁻¹,3.46e+06 M⁻¹ s⁻¹
B19,0.169 nM,0.00392 s⁻¹,2.32e+07 M⁻¹ s⁻¹
B20,1.2 nM,0.00654 s⁻¹,5.43e+06 M⁻¹ s⁻¹
B21,1.11 nM,0.0031 s⁻¹,2.79e+06 M⁻¹ s⁻¹
B22,26.7 nM,0.0317 s⁻¹,1.19e+06 M⁻¹ s⁻¹
B23,0.51 nM,0.000756 s⁻¹,1.48e+06 M⁻¹ s⁻¹

# Molecular target: T2, recombinant mouse Clec4F …
# Experiment: SPR; epitope binning: Clec4F immobilised on the chip; 1st nanobody injected (50 nM) to saturation, then a mix of 1st and 2nd nanobody; extra RU read
# Conditions: both partners purified
row,Binder,binding result
1,B24,binds
